Assay in all cases: ITC
For orientation: In ITC the heat of successive injections is recorded.

Test [1] deals with BRD3_(bromo2) domain (amino acids 306–416) (UniProt Q15059 306-416).
The target in test [2] is BRD2_(bromo2) domain (amino acids 455–347) (UniProt P25440 347-455).
Test [3] has as its target BRD3_(bromo1) (amino acids 24–144) (UniProt Q15059 24-144).
Test [4] addresses BRD2_(bromo1) (amino acids 73–194) (UniProt P25440 73-194).
Test [5] deals with Bromo1-linker(GGS)5-Bromo2 of BRD4 (UniProt O60885 54-168; O60885 351-457).

Kd data for two molecules are collected here from PMC9033776 (2022).

Where no end group is shown, it is not given here.

BRD2_(bromo2) domain (amino acids 455–347), sequence (P25440 347-455): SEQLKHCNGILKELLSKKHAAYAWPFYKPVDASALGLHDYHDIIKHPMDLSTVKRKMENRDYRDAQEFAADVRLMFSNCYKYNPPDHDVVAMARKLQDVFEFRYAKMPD
BRD3_(bromo1) (amino acids 24–144), sequence (Q15059 24-144): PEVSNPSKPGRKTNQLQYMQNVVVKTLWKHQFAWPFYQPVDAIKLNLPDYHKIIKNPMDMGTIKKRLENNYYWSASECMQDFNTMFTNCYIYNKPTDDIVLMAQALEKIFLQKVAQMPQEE
BRD2_(bromo1) (amino acids 73–194), sequence (P25440 73-194): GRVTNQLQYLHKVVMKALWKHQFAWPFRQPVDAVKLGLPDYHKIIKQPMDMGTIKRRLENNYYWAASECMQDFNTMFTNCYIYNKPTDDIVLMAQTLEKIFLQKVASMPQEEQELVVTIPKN
BRD3_(bromo2) domain (amino acids 306–416), sequence (Q15059 306-416): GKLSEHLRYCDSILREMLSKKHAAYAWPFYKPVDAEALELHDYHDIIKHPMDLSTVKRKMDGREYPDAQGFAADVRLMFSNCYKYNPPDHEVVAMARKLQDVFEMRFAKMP

B1: tri-acetylated H2A.Z (1–15) K4acK7acK11ac peptide (peptide)
peptide: AGGK(Ac)AGK(Ac)DSGK(Ac)AKTK
As a reminder, the Kd is the free concentration of one partner at which half of the binding sites on the other are occupied at equilibrium, for simple one-to-one binding. Low values mean higher affinity, high ones lower affinity. With B1, the Kd in test [1] was determined as 1.8 mM; in test [2], 2 mM; in test [3] it was 1.5 mM; in test [4], 2.6 mM.

B2: H2A.ZK4ac7ac11ac peptides cross-linked by a C-terminal cysteine (peptide)
chain: AGGK(Ac)AGK(Ac)DSGK(Ac)AKTKC
modifications: also: cross-linked via C-terminal cysteine
On to B2, for which, in test [5], binding was characterised by a dissociation constant (Kd) of 350 µM.
